From article PMC4838878

Legend:
[1] = target: Myc-Lphn3 with a C-terminal Avitag [mouse]; test: anti-GFP (mV) pull-down, quantified blot; conditions: lysate of HEK293 cells co-transfected with FLAG-FLRT2; averaged over 3-4 independent experiments; parent: 1.1; read off a plot
[2] = target: HA-Unc5D with a C-terminal Avitag [rat]; test: anti-GFP (mV) pull-down, quantified blot; conditions: lysate of HEK293 cells co-transfected with FLAG-FLRT2; averaged over 3-4 independent experiments; parent: 1; read off a plot

| Substance | response (normalized intensity) [1] | response (normalized intensity) [2] |
| --- | --- | --- |
| HA-Unc5D mono-Venus fusion protein (HA-Unc5D-mV) mutant W89N; H91T [rat] / Myc-Lphn3 with a C-terminal Avitag [mouse] chain 1 W44N, chain 1 H46T | 0.35 | – |
| Myc-Lphn3-mV mutant R292N; R294T [mouse] / HA-Unc5D with a C-terminal Avitag [rat] chain 1 R273N, chain 1 R275T | – | 0.41 |
